Measured values taken from the supplement of paper PMC5998384.

Columns and labels:
HeLa Kyoto [1] = assay: solubility in G1/S (NP-40 vs SDS abundance) (log2 ratio); higher = more soluble; conditions: cell cycle stage: G1/S
HeLa Kyoto [2] = assay: solubility change mitosis vs G1/S (difference of NP-40 vs SDS log2 ratios) (log2 ratio difference); higher = more soluble in mitosis
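Throughout, for solubility change mitosis vs G1/S (difference of NP-40 vs SDS log2 ratios): synchronized HeLa Kyoto cells (double thymidine block for G1/S, nocodazole release for mitosis), protein amounts in NP-40 versus SDS lysates quantified by mass spectrometry, three biological replicates.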
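Throughout, for solubility in G1/S (NP-40 vs SDS abundance): HeLa Kyoto cells arrested at G1/S by double thymidine block, proteins quantified by TMT10plex mass spectrometry in mild NP-40 versus SDS extracts, three biological replicates.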

Sequence | solubility in G1/S (log2) (HeLa Kyoto [1]) | solubility change mitosis (log2) (HeLa Kyoto [2])
MELENIVANTVLLKAREGGGGNRKGKSKKWRQMLQFPHISQCEELRLSLERDYHSLCERQPIGRLLFREFCATRPELSRCVAFLDGVAEYEVTPDDKRKACGRQLTQNFLSHTGPDLIPEVPRQLVTNCTQRLEQGPCKDLFQELTRLTHEYLSVAPFADYLDSIYFNRFLQWKWLERQPVTKNTFRQYRVLGKGGFGEVCACQVRATGKMYACKKLEKKRIKKRKGEAMALNEKQILEKVNSRFVVSLAYAYETKDALCLVLTLMNGGDLKFHIYHMGQAGFPEARAVFYAAEICCGLEDLHRERIVYRDLKPENILLDDHGHIRISDLGLAVHVPEGQTIKGRVGTVGYMAPEVVKNERYTFSPDWWALGCLLYEMIAGQSPFQQRKKKIKREEVERLVKEVPEEYSERFSPQARSLCSQLLCKDPAERLGCRGGSAREVKEHPLFKKLNFKRLGAGMLEPPFKPDPQAIYCKDVLDIEQFSTVKGVELEPTDQDFYQKFATGSVPIPWQNEMVETECFQELNVFGLDGSVPPDLDWKGQPPAPPKKGLLQRLFSRQDCCGNCSDSEEELPTRL [GRK6] | -0.123 | -0.198
MELPAVGEHVFAVESIEKKRIRKGRVEYLVKWRGWSPKYNTWEPEENILDPRLLIAFQNRERQEQLMGYRKRGPKPKPLVVQVPTFARRSNVLTGLQDSSTDNRAKLDLGAQGKGQGHQYELNSKKHHQYQPHSKERAGKPPPPGKSGKYYYQLNSKKHHPYQPDPKMYDLQYQGGHKEAPSPTCPDLGAKSHPPDKWAQGAGAKGYLGAVKPLAGAAGAPGKGSEKGPPNGMMPAPKEAVTGNGIGGKMKIVKNKNKNGRIVIVMSKYMENGMQAVKIKSGEVAEGEARSPSHKKRAADERHPPADRTFKKAAGAEEKKVEAPPKRREEEVSGVSDPQPQDAGSRKLSPTKEAFGEQPLQLTTKPDLLAWDPARNTHPPSHHPHPHPHHHHHHHHHHHHAVGLNLSHVRKRCLSETHGEREPCKKRLTARSISTPTCLGGSPAAERPADLPPAAALPQPEVILLDSDLDEPIDLRCVKTRSEAGEPPSSLQVKPETPASAAVAVAAAAAPTTTAEKPPAEAQDEPAESLSEFKPFFGNIIITDVTANCLTVTFKEYVTV [CBX4] | -0.386 | 0.583
MENLMTSSTLPPLFADEDGSKESNDLATTGLNHPEVPYSSGATSSTNNPEFVEDLSQGQLLQSESSNAAEGNEQRHEDEQRSKRGGWSKGRKRKKPLRDSNAPKSPLTGYVRFMNERREQLRAKRPEVPFPEITRMLGNEWSKLPPEEKQRYLDEADRDKERYMKELEQYQKTEAYKVFSRKTQDRQKGKSHRQDAARQATHDHEKETEVKERSVFDIPIFTEEFLNHSKAREAELRQLRKSNMEFEERNAALQKHVESMRTAVEKLEVDVIQERSRNTVLQQHLETLRQVLTSSFASMPLPGSGETPTVDTIDSYMNRLHSIILANPQDNENFIATVREVVNRLDR [HMG20A] | -0.0378 | 0.298
MENLPAVTTEEPTPMGRGPVGPSGGGSTRDQVRTVVMRPSVSWEKAGPEEAKAPVRGDEAPPARVAGPAAGTPPCQMGVYPTDLTLQLLAVRRKSRLRDPGLQQTLRGQLRLLENDSREMARVLGELSARLLSIHSDQDRIVVTFKTFEEIWKFSTYHALGFTHHCLANLLMDQAFWLLLPSEEEETAIQVHVDENALRLTHESLLIQEGPFFVLCPDHHVRVMTGPRDAGNGPQALRQASGAPQGEAAPETDSSPPSPSVSSEEVAVAAAPEPLIPFHQWALRIPQDPIDDAMGGPVMPGNPLMAVGLASALADFQGSGPEEMTFRGGDLIEILGAQVPSLPWCVGRHAASGRVGFVRSSLISMQGPVSELESAIFLNEEEKSFFSEGCFSEEDARQLLRRMSGTDVCSVYSLDSVEEAETEQPQEKEIPPPCLSLEPQETLQKVKNVLEQCKTCPGCPQEPASWGLCAASSDVSLQDPEEPSFCLEAEDDWEDPEALSSLLLFLNAPGYKASFRGLYDVALPWLSSVFRSFSDEEELTGRLAQARGAAKKAGLLMALARLCFLLGRLCSRRLKLSQARVYFEEALGALEGSFGDLFLVVAVYANLASIYRKQKNREKCAQVVPKAMALLLGTPDHICSTEAEGELLQLALRRAVGGQSLQAEARACFLLARHHVHLKQPEEALPFLERLLLLHRDSGAPEAAWLSDCYLLLADIYSRKCLPHLVLSCVKVASLRTRGSLAGSLRSVNLVLQNAPQPHSLPAQTSHYLRQALASLTPGTGQALRGPLYTSLAQLYSHHGCHGPAITFMTQAVEASAIAGVRAIVDHLVALAWLHVLHGQSPVALDILQSVRDAVVASEDQEGVIANMVAVALKRTGRTRQAAESYYRALRVARDLGQQRNQAVGLANFGALCLHAGASRLAQHYLLEAVRLFSRLPLGECGRDFTHVLLQLGHLCTRQGPAQQGKGYYEWALLVAVEMGHVESQLRAVQRLCHFYSAVMPSEAQCVIYHELQLSLACKVADKVLEGQLLETISQLYLSLGTERAYKSALDYTKRSLGIFIDLQKKEKEAHAWLQAGKIYYILRQSELVDLYIQVAQNVALYTGDPNLGLELFEAAGDIFFDGAWEREKAVSFYRDRALPLAVTTGNRKAELRLCNKLVALLATLEEPQEGLEFAHMALALSITLGDRLNERVAYHRLAALQHRLGHGELAEHFYLKALSLCNSPLEFDEETLYYVKVYLVLGDIIFYDLKDPFDAAGYYQLALAAAVDLGNKKAQLKIYTRLATIYHNFLLDREKSLFFYQKARTFATELNVRRVNLPPLPLCGWAPWLAPSHPR [SH3TC1] | -0.47 | 0.0532
MEPIYPFARPQMNTRFPSSRMVPFHFPPSKCALWNPTPTGDFIYLHLSYYRNPKLVVTEKTIRLAYRHAKQNKKNSSCFLLGSLTADEDEEGVTLTVDRFDPGREVPECLEITPTASLPGDFLIPCKVHTQELCSREMIVHSVDDFSSALKALQCHICSKDSLDCGKLLSLRVHITSRESLDSVEFDLHWAAVTLANNFKCTPVKPIPIIPTALARNLSSNLNISQVQGTYKYGYLTMDETRKLLLLLESDPKVYSLPLVGIWLSGITHIYSPQVWACCLRYIFNSSVQERVFSESGNFIIVLYSMTHKEPEFYECFPCDGKIPDFRFQLLTSKETLHLFKNVEPPDKNPIRCELSAESQNAETEFFSKASKNFSIKRSSQKLSSGKMPIHDHDSGVEDEDFSPRPIPSPHPVSQKISKIQPSVPELSLVLDGNFIESNPLPTPLEMVNNENPPLINHLEHLKPLQPQLYDEKHSPEVEAGEPSLRGIPNQLNQDKPALLRHCKVRQPPAYKKGNPHTRNSIKPSSHNGPSHDIFEKLQTVSAGNVQNEEYPIRPSTLNSRQSSLAPQSQPHDFVFSPHNSGRPMELQIPTPPLPSYCSTNVCRCCQHHSHIQYSPLNSWQGANTVGSIQDVQSEALQKHSLFHPSGCPALYCNAFCSSSSPIALRPQGDMGSCSPHSNIEPSPVARPPSHMDLCNPQPCTVCMHTPKTESDNGMMGLSPDAYRFLTEQDRQLRLLQAQIQRLLEAQSLMPCSPKTTAVEDTVQAGRQMELVSVEAQSSPGLHMRKGVSIAVSTGASLFWNAAGEDQEPDSQMKQDDTKISSEDMNFSVDINNEVTSLPGSASSLKAVDIPSFEESNIAVEEEFNQPLSVSNSSLVVRKEPDVPVFFPSGQLAESVSMCLQTGPTGGASNNSETSEEPKIEHVMQPLLHQPSDNQKIYQDLLGQVNHLLNSSSKETEQPSTKAVIISHECTRTQNVYHTKKKTHHSRLVDKDCVLNATLKQLRSLGVKIDSPTKVKKNAHNVDHASVLACISPEAVISGLNCMSFANVGMSGLSPNGVDLSMEANAIALKYLNENQLSQLSVTRSNQNNCDPFSLLHINTDRSTVGLSLISPNNMSFATKKYMKRYGLLQSSDNSEDEEEPPDNADSKSEYLLNQNLRSIPEQLGGQKEPSKNDHEIINCSNCESVGTNADTPVLRNITNEVLQTKAKQQLTEKPAFLVKNLKPSPAVNLRTGKAEFTQHPEKENEGDITIFPESLQPSETLKQMNSMNSVGTFLDVKRLRQLPKLF [STIL] | -0.362 | 0.239
MEPQEERETQVAAWLKKIFGDHPIPQYEVNPRTTEILHHLSERNRVRDRDVYLVIEDLKQKASEYESEAKYLQDLLMESVNFSPANLSSTGSRYLNALVDSAVALETKDTSLASFIPAVNDLTSDLFRTKSKSEEIKIELEKLEKNLTATLVLEKCLQEDVKKAELHLSTERAKVDNRRQNMDFLKAKSEEFRFGIKAAEEQLSARGMDASLSHQSLVALSEKLARLKQQTIPLKKKLESYLDLMPNPSLAQVKIEEAKRELDSIEAELTRRVDMMEL [HAUS1] | 0.463 | 0.128
MEPQVTLNVTFKNEIQSFLVSDPENTTWADIEAMVKVSFDLNTIQIKYLDEENEEVSINSQGEYEEALKMAVKQGNQLQMQVHEGHHVVDEAPPPVVGAKRLAARAGKKPLAHYSSLVRVLGSDMKTPEDPAVQSFPLVPCDTDQPQDKPPDWFTSYLETFREQVVNETVEKLEQKLHEKLVLQNPSLGSCPSEVSMPTSEETLFLPENQFSWHIACNNCQRRIVGVRYQCSLCPSYNICEDCEAGPYGHDTNHVLLKLRRPVVGSSEPFCHSKYSTPRLPAALEQVRLQKQVDKNFLKAEKQRLRAEKKQRKAEVKELKKQLKLHRKIHLWNSIHGLQSPKSPLGRPESLLQSNTLMLPLQPCTSVMPMLSAAFVDENLPDGTHLQPGTKFIKHWRMKNTGNVKWSADTKLKFMWGNLTLASTEKKDVLVPCLKAGHVGVVSVEFIAPALEGTYTSHWRLSHKGQQFGPRVWCSIIVDPFPSEESPDNIEKGMISSSKTDDLTCQQEETFLLAKEERQLGEVTEQTEGTAACIPQKAKNVASERELYIPSVDLLTAQDLLSFELLDINIVQELERVPHNTPVDVTPCMSPLPHDSPLIEKPGLGQIEEENEGAGFKALPDSMVSVKRKAENIASVEEAEEDLSGTQFVCETVIRSLTLDAAPDHNPPCRQKSLQMTFALPEGPLGNEKEEIIHIAEEEAVMEEEEDEEDEEEEDELKDEVQSQSSASSEDYIIILPECFDTSRPLGDSMYSSALSQPGLERGAEGKPGVEAGQEPAEAGERLPGGENQPQEHSISDILTTSQTLETVPLIPEVVELPPSLPRSSPCVHHHGSPGVDLPVTIPEVSSVPDQIRGEPRGSSGLVNSRQKSYDHSRHHHGSSIAGGLVKGALSVAASAYKALFAGPPVTAQPIISEDQTAALMAHLFEMGFCDRQLNLRLLKKHNYNILQVVTELLQLNNNDWYSQRY [NBR1] | -0.371 | 0.193
MERAVRVESGVLVGVVCLLLACPATATGPEVAQPEVDTTLGRVRGRQVGVKGTDRLVNVFLGIPFAQPPLGPDRFSAPHPAQPWEGVRDASTAPPMCLQDVESMNSSRFVLNGKQQIFSVSEDCLVLNVYSPAEVPAGSGRPVMVWVHGGALITGAATSYDGSALAAYGDVVVVTVQYRLGVLGFFSTGDEHAPGNQGFLDVVAALRWVQENIAPFGGDLNCVTVFGGSAGGSIISGLVLSPVAAGLFHRAITQSGVITTPGIIDSHPWPLAQKIANTLACSSSSPAEMVQCLQQKEGEELVLSKKLKNTIYPLTVDGTVFPKSPKELLKEKPFHSVPFLMGVNNHEFSWLIPRGWGLLDTMEQMSREDMLAISTPVLTSLDVPPEMMPTVIDEYLGSNSDAQAKCQAFQEFMGDVFINVPTVSFSRYLRDSGSPVFFYEFQHRPSSFAKIKPAWVKADHGAEGAFVFGGPFLMDESSRLAFPEATEEEKQLSLTMMAQWTHFARTGDPNSKALPPWPQFNQAEQYLEINPVPRAGQKFREAWMQFWSETLPSKIQQWHQKQKNRKAQEDL [CES3] | 0.261 | -0.166
